Assay results: the supplement of paper PMC9170038

test system: MS2 coat protein; experiment: apparent KD of MS2 coat protein; higher = weaker reporter binding; settings: Eterna round: R107; input ligand: theophylline 2 mM
Method in brief: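 Each design's apparent KD comes from the median of binding-curve fits to its normalised clusters. Those clusters carried RNA switches transcribed on-chip from Illumina sequencing clusters. SNAP-549-labelled MS2 coat protein was titrated onto them in twofold steps (0.7 or 1.5 nM to 3 µM; per step 0.8–1.5 h down to 10–20 min). Conditions were 100 mM Tris-HCl pH 7.5, 80 mM KCl, 4 mM MgCl2, without or with constant ligand.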

Sequence	apparent KD of MS2 coat protein
AACAUGAGGAUCACCCAUGUCUGAACUGAAGGAGCGCUAAAUAAGGCAGGUAGGUCGCGGAAUUUUAUAUAUAUAUAUAUAUGGG [9.E]	34.6 nM
CACAAUUUGUCGGCCGCCACUAAGGUAACUUUUCUCACAUGAGGAUCACCCAUGUGCCCGAAACUUAGGACCGGGAUAAUGGGUG [Usteraor]	183 nM
UGAUACCAGUCGGCCGCCACUACAUGAGGAUCACCCAUGUAUCCUCAACUGCUAGAUACUAGCAGUAGGACCGGGACUGGUAUCU	459 nM
UGAAAGUAGGGAAGGAGCGCUACAACAUGAGGAUCACCCAUGUAAUGAGGAUCACCCAUGUGGCAGGUAGGUCGCCCAAAACAUG [#14 Same State - Arginine B]	197 nM
UCGUGCAGAGCGGCCGCCACUGUAUUGCGUGCGGAUGACGGAACAUGAGGAUCACCCAUGUUGUUUAGGACCGGGCUUGCCACCA ['xmullin]	14.3 nM
GGACUCGUCACGGCCGCCACUGCGGUGGUGUGACAUGAGGAUCACCCAUGUUGUCAUGCGGCCCUUAGGACCGGGUGUCGCUUCC [#1 Exclusion - Tryptophan B Attempt #24 (HarryS)]	336 nM
AGGUGCAAAGCACCCUCUGGCCCUCGUGAAGGAGCGCUCGAAAGAGCAGGUAGGUCGCAUGAGGAUCACCCAUGUGAGCCAGAGA [Arg A Exc A v1]	65.3 nM
AACGUAUACAGAAGGAGCGUGAUUUAUAUUUCUUUAACAUAUACAUGAGGAUCACCCAUGUCACAGGUAGGUCGCUGUAUUCGUA [JR_ExcArginiB_Sub023]	32.6 nM
GGAUAGGACACGGCCGCCACUAGCUAGGAUACUAGCAACAUUUCCUCACUUGAGGAUCACCCAAGUAGGACCGGGUGUCCUAUCG	160 nM
CUAAGAGCGGCGGCCGCCACUGGUAACCGAGAGGAGGAGCCUCUGACAUGAGGAUCACCCAUGUUCAGGACCGGGUCGUCUUAGA [#06 Same State - Tryptophan B]	74.4 nM

same assay, conditions: Eterna round: R107; input ligand: tryptophan 2.4 mM

Sequence	apparent KD of MS2 coat protein
UUGGGUAUGCGAAGGAGCGGGAAAUAUAUAUAUAUAAUCCUAACAUGAGGAUCACCCAUGUCCCAGGUAGGUCGCGCAUGUUUGG [12.K]	247 nM
UAUACAUGAGGAUCACCCAUGUGCCAUGAUACCAGACAUGAAAAUGUCCCUUGGCAGCAUGGUGAUUGUAUAGCGGGAAACCCGA [Utechov]	138 nM
CAUUGAGCAGCUGAUACCAGUGCCUGAACUUACAUGAGGAUCACCCAUGUAUGCCCAAAACACCCUUGGCAGCAGAGGAAGAUCG [theeternabot_sameState_MS2_Theo_B_38]	14.5 nM
GACCGAUUAUAGUGCGAUUGUCUUGUGGAAGGAGCGCAGAGGACUGCAGGUAGGUCGCCACAUGAGGAUCACCCAUGUCAGGAUU [Reinorlaan]	40.5 nM
GGACUAACCAGAAGGAGCGACACGCAGAAACUGCAAAAUCCUCCGCACGAGGAUCACCCGUGUCAGGUAGGUCGCUGGUUAGUCG	49.7 nM
AAUACCGGUCCUCGAAGUGAUCCUCAUGAACGAGGACCGGUACGGCCGCCACUCGAUAACAUGAGGAUCACCCAUGUAAUAAUAA [|T'-M'-Trp-Ms2|_Design4]	70.6 nM
AUAACAUGAGGAUCACCCAUGUUGAGUGAUACCAGACCAUGUAGUGUCCCUUGGCAGCACAGGUAAAGUUGUAAAUAACGAUAGA [#13 SameState-TheophyllineA]	59.7 nM
AAAAUCCUAUCUGAGGAUCACCCAGGUGAAGGAGCGCCCGAAAGGGCAGGUAGGUCGCACCUGAGGAUCACCCUGGUAACCUAAA [ArgEX 10 #DoubleMS2 #OpenEnded #AlternativeMS2]	88.5 nM
AAACGCCACGGAAGGAGCGACAUGAGGAUCACCCAUGUAGAAGUGGCGGAUGCACCCUCCUGUCAGGUAGGUCGCCGUGCGCCAA [XArg-B24]	22.4 nM
UGGGAAGGAGGAAGGAGCGCCAUAAGGGUGACUGUCUGGGUACAUGAGGAUCACCCAUGUAGGCAGGUAGGUCGCCUCGCUCUCA [Bibienoned]	10.4 nM
AGAGUUAGACAAAAGUCUAGCUCACCAGAAGGAGCGUCCGAAAGGACAGGUAGGUCGCUGGUACAUGAGGAUCACCCAUGUUCCU [ArgAS 8 #OpenEnded]	82 nM
GCUGCCAUACGAAGGAGCGCUGCUGCGAUGUGGCGAACAUGAGGAUCACCCAUGUGGCAGCAGCAGGUAGGUCGCGUAUGGCAGC [#01 Exclusion - Arginine B]	198 nM
UGUAUGGACUGAAGGAGCGGAAAAUAAACCUGAGGAUCACCCGGGUAAUAGGCGAAAGCCAUCCAGGUAGGUCGCAGUCCAUACU	291 nM
AACUGGACCCGUGAUACCAGAGACAUGAGGAUCACCCAUGUACAUGAGGAUCACCCAUGUCUCCCUUGGCAGCACCGCAGGGAGC [Exclusion Theophylline B GF 13]	128 nM
AUUAUCAUGGUCAUAUAUAUUUCGUCAGAUACCAGACUAGAUAUAGUCCCUUGGCAGCUGUUACAUGAGGAUCACCCAUGUUAUA [JR_ExcTheophyA_Sub016]	93.3 nM
UGUAUGUGAUCUGAUACCAGCCUCAUAACUUGAGGAUCACCCAAGUGGAGCGGAAACGCUGGCCCUUGGCAGCAGAUCGCAUACU [TheoBS 2 #AlternativeMS2]	556 nM

Sequence	apparent KD of MS2 coat protein
AGUAACAUGAGGAUCACCCAUGUAUGAGAAGGAGCGUGUUUUAACACAGGUAGGUCGCUCAAUAUUAUUUACUAGCGAAAGCUAG [JR_SSArginiA_Sub007]	18 nM
CAGACUAGGGCGGCCGCCACUGUGGCUACGGUACAUGAGGAUCACCCAUGUUUGUGGUUGAUCUACAGGACCGGGCCCUGGCACG [Orbera]	273 nM
GCACAUGAGGAUCACCCAUGUAUUACUGAAGGAGCGAGACAGAACUCAGGUAGGUCGCAGACUGCACAAUUGCGGACGACAUGGG [Exclusion Arginine A GF22]	34.3 nM
GGAUAGGACAGAAGGAGCGACAUCGCCGAAAGGCUGGUAAGAUCACAUGAGGAUCACCCAUGUCAGGUAGGUCGCUGUCCUAUCG [ArgXB 11 #Zipper #MS2Left #StaticStem #Blueprint]	308 nM
GGGUAAGAUCCGGAUACCAGCGAACAUGAGGAUCACCCAUGUGACCUAAGAUAGGCUAAACGCCCUUGGCAGCCGAGAUAGCGUU [Same State Theophylline B GF 6]	39.5 nM
AACAUGAGGAUCACCCAUGUCUGAACUGAAGGAGCGCUAAAUAAGGCAGGUAGGUCGCGGAAUUUUAUAUAUAUAUAUAUAUGGG [9.E]	20.5 nM
CCUAUUCCUACGGAUACCAGACGAUCCGUGGCGUGUGUGAACAUGAGGAUCACCCAUGUAGUCCCUUGGCAGCCGAUGCGGGUAA [theeternabot_exclusion_MS2_Theo_B_10]	33.5 nM
AUCGUACCUGAGGAUACCAGCAUGUGAUCAUAACAUGAGGAUCACCCAUGUAAUCAGUGAUGCCCUUGGCAGCUUGGUCGAUACA [Same State - Theophylline B (Freestyle 9)]	46.2 nM
UGAAAGUAGGGAAGGAGCGCUACAACAUGAGGAUCACCCAUGUAAUGAGGAUCACCCAUGUGGCAGGUAGGUCGCCCAAAACAUG [#14 Same State - Arginine B]	181 nM
AGGUGCAAAGCACCCUCUGGCCCUCGUGAAGGAGCGCUCGAAAGAGCAGGUAGGUCGCAUGAGGAUCACCCAUGUGAGCCAGAGA [Arg A Exc A v1]	56.2 nM
AACGUAUACAGAAGGAGCGUGAUUUAUAUUUCUUUAACAUAUACAUGAGGAUCACCCAUGUCACAGGUAGGUCGCUGUAUUCGUA [JR_ExcArginiB_Sub023]	30.8 nM
CAUUAUGUAACUGAUACCAGUGUACUGACAUGAGGAUCACCCAUGUUGGGUUUUGUUGUACACCCUUGGCAGCAGAAUCAUAAUG [AstrosExyTheB#2]	57.8 nM
GGAUAGGACACGGCCGCCACUAGCUAGGAUACUAGCAACAUUUCCUCACUUGAGGAUCACCCAAGUAGGACCGGGUGUCCUAUCG	182 nM
CUAAGAGCGGCGGCCGCCACUGGUAACCGAGAGGAGGAGCCUCUGACAUGAGGAUCACCCAUGUUCAGGACCGGGUCGUCUUAGA [#06 Same State - Tryptophan B]	54.6 nM
GAGGGUGAAUCUCUGGUCCGUUUGACGGAUACCAGCGAGAGGUAUCGCCCUUGGCAGCCGACGACAUGAGGAUCACCCAUGUUAA [#08 Exclusion-TheophyllineA]	18 nM
